Assay results from the supplement of paper PMC10266784.

B1: library; numbered along this chain (parent)
chain: MAAAAAAAAEQQSSNGPVKKSMREKAVERRSVNKEHNSNFKAGYIPIDEDRLHKTGLRGRKGNLAICVIILLFILAVINLIITLVIWAVIRIGPNGCDSMEFHESGLLRFKQVSDMGVIHPLYKSTVGGRRNENLVITGNNQPIVFQQGTTKLSVENNKTSITSDIGMQFFDPRTQNILFSTDYETHEFHLPSGVKSLNVQKASTERITSNATSDLNIKVDGRAIVRGNEGVFIMGKTIEFHMGGNMELKAENSIILNGSVMVSTTRLPSSSSGDQLGSGDWVRYKLCMCADGTLFKVQVTSQNMGCQISDNPCGNTH

Variants of: B1
Assay: SGCB cell-surface expression functional score (HA stain, bin4 vs bin1, normalised to synonymous) (log10 ratio); higher = more cell-surface SGCB (functional)
Description: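 Deep mutational scan of full-length human SGCB (YFP-SGCB-HA, NNN codon sublibraries A-F) delivered by lentivirus at low MOI into ADG-HEK293 cells stably expressing SGCA, SGCD and SGCG. YFP-positive cells were stained for surface HA on unpermeabilized cells and FACS-sorted into bins. The functional score is log10(frequency in high bin 4 / frequency in low bin 1), normalised per chunk so that synonymous variants have mean 0 and SD 0.5. Scores are the median over codons and over duplicate biological replicates; scores below -0.5 are called non-functional. Scale: negative means deleterious.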

Variant	SGCB cell-surface expression functional score (log10)
MAAAAAAAAEQQSSNGPVKKSMREKAVERRSVNKEHDSNFKAGYIPIDEDRLHKTGLRGRKGNLAICVIILLFILAVINLIITLVIWAVIRIGPNGCDSMEFHESGLLRFKQVSDMGVIHPLYKSTVGGRRNENLVITGNNQPIVFQQGTTKLSVENNKTSITSDIGMQFFDPRTQNILFSTDYETHEFHLPSGVKSLNVQKASTERITSNATSDLNIKVDGRAIVRGNEGVFIMGKTIEFHMGGNMELKAENSIILNGSVMVSTTRLPSSSSGDQLGSGDWVRYKLCMCADGTLFKVQVTSQNMGCQISDNPCGNTH [N37D]	-0.35
MAAAAAAAAEQQSSNGPVKKSMREKAVERRSVNKEHCSNFKAGYIPIDEDRLHKTGLRGRKGNLAICVIILLFILAVINLIITLVIWAVIRIGPNGCDSMEFHESGLLRFKQVSDMGVIHPLYKSTVGGRRNENLVITGNNQPIVFQQGTTKLSVENNKTSITSDIGMQFFDPRTQNILFSTDYETHEFHLPSGVKSLNVQKASTERITSNATSDLNIKVDGRAIVRGNEGVFIMGKTIEFHMGGNMELKAENSIILNGSVMVSTTRLPSSSSGDQLGSGDWVRYKLCMCADGTLFKVQVTSQNMGCQISDNPCGNTH [N37C]	0.35
MAAAAAAAAEQQSSNGPVKKSMREKAVERRSVNKEHASNFKAGYIPIDEDRLHKTGLRGRKGNLAICVIILLFILAVINLIITLVIWAVIRIGPNGCDSMEFHESGLLRFKQVSDMGVIHPLYKSTVGGRRNENLVITGNNQPIVFQQGTTKLSVENNKTSITSDIGMQFFDPRTQNILFSTDYETHEFHLPSGVKSLNVQKASTERITSNATSDLNIKVDGRAIVRGNEGVFIMGKTIEFHMGGNMELKAENSIILNGSVMVSTTRLPSSSSGDQLGSGDWVRYKLCMCADGTLFKVQVTSQNMGCQISDNPCGNTH [N37A]	0.08
MAAAAAAAAEQQSSNGPVKKSMREKAVERRSVNKEQNSNFKAGYIPIDEDRLHKTGLRGRKGNLAICVIILLFILAVINLIITLVIWAVIRIGPNGCDSMEFHESGLLRFKQVSDMGVIHPLYKSTVGGRRNENLVITGNNQPIVFQQGTTKLSVENNKTSITSDIGMQFFDPRTQNILFSTDYETHEFHLPSGVKSLNVQKASTERITSNATSDLNIKVDGRAIVRGNEGVFIMGKTIEFHMGGNMELKAENSIILNGSVMVSTTRLPSSSSGDQLGSGDWVRYKLCMCADGTLFKVQVTSQNMGCQISDNPCGNTH [H36Q]	0.22
MAAAAAAAAEQQSSNGPVKKSMREKAVERRSVNKEINSNFKAGYIPIDEDRLHKTGLRGRKGNLAICVIILLFILAVINLIITLVIWAVIRIGPNGCDSMEFHESGLLRFKQVSDMGVIHPLYKSTVGGRRNENLVITGNNQPIVFQQGTTKLSVENNKTSITSDIGMQFFDPRTQNILFSTDYETHEFHLPSGVKSLNVQKASTERITSNATSDLNIKVDGRAIVRGNEGVFIMGKTIEFHMGGNMELKAENSIILNGSVMVSTTRLPSSSSGDQLGSGDWVRYKLCMCADGTLFKVQVTSQNMGCQISDNPCGNTH [H36I]	0.09
MAAAAAAAAEQQSSNGPVKKSMREKAVERRSVNKEGNSNFKAGYIPIDEDRLHKTGLRGRKGNLAICVIILLFILAVINLIITLVIWAVIRIGPNGCDSMEFHESGLLRFKQVSDMGVIHPLYKSTVGGRRNENLVITGNNQPIVFQQGTTKLSVENNKTSITSDIGMQFFDPRTQNILFSTDYETHEFHLPSGVKSLNVQKASTERITSNATSDLNIKVDGRAIVRGNEGVFIMGKTIEFHMGGNMELKAENSIILNGSVMVSTTRLPSSSSGDQLGSGDWVRYKLCMCADGTLFKVQVTSQNMGCQISDNPCGNTH [H36G]	0.11
MAAAAAAAAEQQSSNGPVKKSMREKAVERRSVNKEPNSNFKAGYIPIDEDRLHKTGLRGRKGNLAICVIILLFILAVINLIITLVIWAVIRIGPNGCDSMEFHESGLLRFKQVSDMGVIHPLYKSTVGGRRNENLVITGNNQPIVFQQGTTKLSVENNKTSITSDIGMQFFDPRTQNILFSTDYETHEFHLPSGVKSLNVQKASTERITSNATSDLNIKVDGRAIVRGNEGVFIMGKTIEFHMGGNMELKAENSIILNGSVMVSTTRLPSSSSGDQLGSGDWVRYKLCMCADGTLFKVQVTSQNMGCQISDNPCGNTH [H36P]	0.32
MAAAAAAAAEQQSSNGPVKKSMREKAVERRSVNKEYNSNFKAGYIPIDEDRLHKTGLRGRKGNLAICVIILLFILAVINLIITLVIWAVIRIGPNGCDSMEFHESGLLRFKQVSDMGVIHPLYKSTVGGRRNENLVITGNNQPIVFQQGTTKLSVENNKTSITSDIGMQFFDPRTQNILFSTDYETHEFHLPSGVKSLNVQKASTERITSNATSDLNIKVDGRAIVRGNEGVFIMGKTIEFHMGGNMELKAENSIILNGSVMVSTTRLPSSSSGDQLGSGDWVRYKLCMCADGTLFKVQVTSQNMGCQISDNPCGNTH [H36Y]	0.15
MAAAAAAAAEQQSSNGPVKKSMREKAVERRSVNKEWNSNFKAGYIPIDEDRLHKTGLRGRKGNLAICVIILLFILAVINLIITLVIWAVIRIGPNGCDSMEFHESGLLRFKQVSDMGVIHPLYKSTVGGRRNENLVITGNNQPIVFQQGTTKLSVENNKTSITSDIGMQFFDPRTQNILFSTDYETHEFHLPSGVKSLNVQKASTERITSNATSDLNIKVDGRAIVRGNEGVFIMGKTIEFHMGGNMELKAENSIILNGSVMVSTTRLPSSSSGDQLGSGDWVRYKLCMCADGTLFKVQVTSQNMGCQISDNPCGNTH [H36W]	-0.09
MAAAAAAAAEQQSSNGPVKKSMREKAVERRSVNKERNSNFKAGYIPIDEDRLHKTGLRGRKGNLAICVIILLFILAVINLIITLVIWAVIRIGPNGCDSMEFHESGLLRFKQVSDMGVIHPLYKSTVGGRRNENLVITGNNQPIVFQQGTTKLSVENNKTSITSDIGMQFFDPRTQNILFSTDYETHEFHLPSGVKSLNVQKASTERITSNATSDLNIKVDGRAIVRGNEGVFIMGKTIEFHMGGNMELKAENSIILNGSVMVSTTRLPSSSSGDQLGSGDWVRYKLCMCADGTLFKVQVTSQNMGCQISDNPCGNTH [H36R]	-0.04
MAAAAAAAAEQQSSNGPVKKSMREKAVERRSVNKETNSNFKAGYIPIDEDRLHKTGLRGRKGNLAICVIILLFILAVINLIITLVIWAVIRIGPNGCDSMEFHESGLLRFKQVSDMGVIHPLYKSTVGGRRNENLVITGNNQPIVFQQGTTKLSVENNKTSITSDIGMQFFDPRTQNILFSTDYETHEFHLPSGVKSLNVQKASTERITSNATSDLNIKVDGRAIVRGNEGVFIMGKTIEFHMGGNMELKAENSIILNGSVMVSTTRLPSSSSGDQLGSGDWVRYKLCMCADGTLFKVQVTSQNMGCQISDNPCGNTH [H36T]	-0.13
MAAAAAAAAEQQSSNGPVKKSMREKAVERRSVNKESNSNFKAGYIPIDEDRLHKTGLRGRKGNLAICVIILLFILAVINLIITLVIWAVIRIGPNGCDSMEFHESGLLRFKQVSDMGVIHPLYKSTVGGRRNENLVITGNNQPIVFQQGTTKLSVENNKTSITSDIGMQFFDPRTQNILFSTDYETHEFHLPSGVKSLNVQKASTERITSNATSDLNIKVDGRAIVRGNEGVFIMGKTIEFHMGGNMELKAENSIILNGSVMVSTTRLPSSSSGDQLGSGDWVRYKLCMCADGTLFKVQVTSQNMGCQISDNPCGNTH [H36S]	0.21
MAAAAAAAAEQQSSNGPVKKSMREKAVERRSVNKELNSNFKAGYIPIDEDRLHKTGLRGRKGNLAICVIILLFILAVINLIITLVIWAVIRIGPNGCDSMEFHESGLLRFKQVSDMGVIHPLYKSTVGGRRNENLVITGNNQPIVFQQGTTKLSVENNKTSITSDIGMQFFDPRTQNILFSTDYETHEFHLPSGVKSLNVQKASTERITSNATSDLNIKVDGRAIVRGNEGVFIMGKTIEFHMGGNMELKAENSIILNGSVMVSTTRLPSSSSGDQLGSGDWVRYKLCMCADGTLFKVQVTSQNMGCQISDNPCGNTH [H36L]	-0.04
MAAAAAAAAEQQSSNGPVKKSMREKAVERRSVNKEMNSNFKAGYIPIDEDRLHKTGLRGRKGNLAICVIILLFILAVINLIITLVIWAVIRIGPNGCDSMEFHESGLLRFKQVSDMGVIHPLYKSTVGGRRNENLVITGNNQPIVFQQGTTKLSVENNKTSITSDIGMQFFDPRTQNILFSTDYETHEFHLPSGVKSLNVQKASTERITSNATSDLNIKVDGRAIVRGNEGVFIMGKTIEFHMGGNMELKAENSIILNGSVMVSTTRLPSSSSGDQLGSGDWVRYKLCMCADGTLFKVQVTSQNMGCQISDNPCGNTH [H36M]	-0.06
MAAAAAAAAEQQSSNGPVKKSMREKAVERRSVNKENNSNFKAGYIPIDEDRLHKTGLRGRKGNLAICVIILLFILAVINLIITLVIWAVIRIGPNGCDSMEFHESGLLRFKQVSDMGVIHPLYKSTVGGRRNENLVITGNNQPIVFQQGTTKLSVENNKTSITSDIGMQFFDPRTQNILFSTDYETHEFHLPSGVKSLNVQKASTERITSNATSDLNIKVDGRAIVRGNEGVFIMGKTIEFHMGGNMELKAENSIILNGSVMVSTTRLPSSSSGDQLGSGDWVRYKLCMCADGTLFKVQVTSQNMGCQISDNPCGNTH [H36N]	0.25
MAAAAAAAAEQQSSNGPVKKSMREKAVERRSVNKEVNSNFKAGYIPIDEDRLHKTGLRGRKGNLAICVIILLFILAVINLIITLVIWAVIRIGPNGCDSMEFHESGLLRFKQVSDMGVIHPLYKSTVGGRRNENLVITGNNQPIVFQQGTTKLSVENNKTSITSDIGMQFFDPRTQNILFSTDYETHEFHLPSGVKSLNVQKASTERITSNATSDLNIKVDGRAIVRGNEGVFIMGKTIEFHMGGNMELKAENSIILNGSVMVSTTRLPSSSSGDQLGSGDWVRYKLCMCADGTLFKVQVTSQNMGCQISDNPCGNTH [H36V]	0.28
MAAAAAAAAEQQSSNGPVKKSMREKAVERRSVNKEENSNFKAGYIPIDEDRLHKTGLRGRKGNLAICVIILLFILAVINLIITLVIWAVIRIGPNGCDSMEFHESGLLRFKQVSDMGVIHPLYKSTVGGRRNENLVITGNNQPIVFQQGTTKLSVENNKTSITSDIGMQFFDPRTQNILFSTDYETHEFHLPSGVKSLNVQKASTERITSNATSDLNIKVDGRAIVRGNEGVFIMGKTIEFHMGGNMELKAENSIILNGSVMVSTTRLPSSSSGDQLGSGDWVRYKLCMCADGTLFKVQVTSQNMGCQISDNPCGNTH [H36E]	0.05
MAAAAAAAAEQQSSNGPVKKSMREKAVERRSVNKEFNSNFKAGYIPIDEDRLHKTGLRGRKGNLAICVIILLFILAVINLIITLVIWAVIRIGPNGCDSMEFHESGLLRFKQVSDMGVIHPLYKSTVGGRRNENLVITGNNQPIVFQQGTTKLSVENNKTSITSDIGMQFFDPRTQNILFSTDYETHEFHLPSGVKSLNVQKASTERITSNATSDLNIKVDGRAIVRGNEGVFIMGKTIEFHMGGNMELKAENSIILNGSVMVSTTRLPSSSSGDQLGSGDWVRYKLCMCADGTLFKVQVTSQNMGCQISDNPCGNTH [H36F]	-0.16
MAAAAAAAAEQQSSNGPVKKSMREKAVERRSVNKEKNSNFKAGYIPIDEDRLHKTGLRGRKGNLAICVIILLFILAVINLIITLVIWAVIRIGPNGCDSMEFHESGLLRFKQVSDMGVIHPLYKSTVGGRRNENLVITGNNQPIVFQQGTTKLSVENNKTSITSDIGMQFFDPRTQNILFSTDYETHEFHLPSGVKSLNVQKASTERITSNATSDLNIKVDGRAIVRGNEGVFIMGKTIEFHMGGNMELKAENSIILNGSVMVSTTRLPSSSSGDQLGSGDWVRYKLCMCADGTLFKVQVTSQNMGCQISDNPCGNTH [H36K]	0.53
